Results published in publication PMC3284512.

T1: MUC1 peptide1 (APDTRPAPG epitope) (UniProt P15941)
T1 chain: APDTRPAPG

T2: MUC1 peptide2 (entire tandem repeat) (UniProt P15941)
T2 chain: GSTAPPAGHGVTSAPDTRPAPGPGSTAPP

B1: MA3 (ssDNA)
DNA: AACCGCCCAAATCCCTAAGAGTCGGACTGCAACCTATGCTATCGTTGATGTCTGTCCAAGCAACACAGACACACTACACACGCACA

What was measured:
[1] = tested on: MA3 (DNA, aptamer) AACCGCCCAAATCCCTAAGAGTCGGACTGCAACCTATGCTATCGTTGATGTCTGTCCAAGCAACACAGACACACTACACACGCACA; experiment: fluorescence quenching of doxorubicin; conditions: aqueous solution, 1 h; Dox 3 nM as printed; intercalation; quenching complete at aptamer/Dox 0.1
[2] = molecular target: T1, MUC1 peptide1 (APDTRPAPG epitope); experiment: flow cytometry, bead binding; Hanks buffer (binding buffer), 37 C, 30 min, 200 ul; aptamer DNA heated 95 C 5 min then cooled to 0 C (stated for SELEX pool and Dox loading); pH not stated; conditions: tags: EDC-coupled to carboxylated magnetic beads; label: 5'-FITC
[3] = molecular target: T2, MUC1 peptide2 (entire tandem repeat); experiment: as above; conditions: tags: EDC-coupled to magnetic beads; label: 5'-FITC

Molecule | binding [1] | Kd [2] [nM] | binding result [3]
COc1cccc2c1C(=O)c1c(O)c3c(c(O)c1C2=O)C[C@@](O)(C(=O)CO)C[C@@H]3O[C@H]1C[C@H](N)[C@H](O)[C@H](C)O1 | yes | – | –
B1 | – | 38.3 | binds
